These results are taken from patent publication JP2021042960A (dated 2021).

One experiment addresses T1, ヒトCLDN15タンパク質 (human, UniProt P56746 1-228).
T1 construct: Expressed in HEK293T cells from a plasmid that also expresses Venus; 228 residues, four-pass membrane protein; also called クローディン15; WT
T1 sequence: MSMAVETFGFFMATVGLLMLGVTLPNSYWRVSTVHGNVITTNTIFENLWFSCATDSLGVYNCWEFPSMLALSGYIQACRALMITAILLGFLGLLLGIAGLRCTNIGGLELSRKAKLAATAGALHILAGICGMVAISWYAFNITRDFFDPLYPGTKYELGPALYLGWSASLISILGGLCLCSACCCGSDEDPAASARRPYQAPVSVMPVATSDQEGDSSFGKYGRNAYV
In words: immunohistochemistry on paraffin sections of CLDN-expressing cell pellets and of patients' malignant pleural mesothelioma tissue.

The target in another experiment is T2, ヒトCLDN9タンパク質 (human, UniProt O95484 1-217).
T2 construct: whole, on cells; Expressed with Venus in HEK293T cells; formalin-fixed paraffin sections of cell pellets; also called CLDN9
T2 sequence (looked up): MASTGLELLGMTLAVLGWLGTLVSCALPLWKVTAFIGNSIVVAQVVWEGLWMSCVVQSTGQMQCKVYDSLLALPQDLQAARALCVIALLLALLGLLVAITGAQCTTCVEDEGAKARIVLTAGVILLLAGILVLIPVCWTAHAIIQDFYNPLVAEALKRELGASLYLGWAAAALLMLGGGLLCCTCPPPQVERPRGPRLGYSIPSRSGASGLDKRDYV
The experiment is described as follows: immunohistochemistry on paraffin sections of HEK293T cells expressing the CLDN.

In the next experiment the target is T3, ヒトCLDN6タンパク質 (human, UniProt P56747 1-220).
T3 construct: whole, on cells; Expressed with Venus in HEK293T cells; formalin-fixed paraffin sections of cell pellets
T3 sequence (looked up): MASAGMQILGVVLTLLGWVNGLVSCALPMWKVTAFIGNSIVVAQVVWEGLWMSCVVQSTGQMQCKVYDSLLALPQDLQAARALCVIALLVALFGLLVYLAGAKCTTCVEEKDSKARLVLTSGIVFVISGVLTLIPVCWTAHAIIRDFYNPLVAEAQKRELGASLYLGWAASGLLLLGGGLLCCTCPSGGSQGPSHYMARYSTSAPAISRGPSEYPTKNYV
The description is as above.

The next experiment concerns the target T4, ヒトCLDN1タンパク質 (human, UniProt O95832 1-211).
T4 construct: whole, on cells; Expressed with Venus in HEK293T cells; formalin-fixed paraffin sections of cell pellets
T4 sequence (looked up): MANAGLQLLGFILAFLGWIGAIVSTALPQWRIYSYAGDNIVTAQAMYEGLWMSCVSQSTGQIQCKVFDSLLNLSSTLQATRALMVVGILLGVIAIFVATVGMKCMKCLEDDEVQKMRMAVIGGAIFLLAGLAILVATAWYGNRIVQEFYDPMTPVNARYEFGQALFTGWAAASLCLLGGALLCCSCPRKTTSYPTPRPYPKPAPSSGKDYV
Described as above.

The next experiment addresses T5, ヒトCLDN4タンパク質 (human, UniProt O14493 1-209).
T5 construct: whole, on cells; Expressed with Venus in HEK293T cells; formalin-fixed paraffin sections of cell pellets
T5 sequence (looked up): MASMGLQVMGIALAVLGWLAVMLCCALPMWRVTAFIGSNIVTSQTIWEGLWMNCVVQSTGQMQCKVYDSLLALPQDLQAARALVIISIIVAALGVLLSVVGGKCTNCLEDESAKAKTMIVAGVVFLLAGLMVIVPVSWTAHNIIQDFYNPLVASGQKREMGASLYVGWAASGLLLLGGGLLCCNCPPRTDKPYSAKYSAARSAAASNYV
Described as above.

The next experiment has as its target T6, ヒトCLDN5タンパク質 (human, UniProt O00501 1-218).
T6 construct: whole, on cells; Expressed with Venus in HEK293T cells; formalin-fixed paraffin sections of cell pellets
T6 sequence (looked up): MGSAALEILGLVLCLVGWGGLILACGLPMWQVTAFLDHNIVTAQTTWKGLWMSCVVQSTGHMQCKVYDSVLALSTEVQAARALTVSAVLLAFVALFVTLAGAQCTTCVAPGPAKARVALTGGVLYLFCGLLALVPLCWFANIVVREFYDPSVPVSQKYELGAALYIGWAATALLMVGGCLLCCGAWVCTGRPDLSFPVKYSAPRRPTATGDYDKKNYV
The experiment is described as above.

B1: ラット抗ヒトCLDN15モノクローナル抗体クローン2C11 (antibody, V domains shown)
VH: AVQLVESGGGLVQPKESLKISCAASGFTFSNAAMYWVRQAPGKGLEWVARIRTKPNNYATYYADSVKGRFTISRDDSKSMVYLQMDNLKTEDSAMYYCTAPAYYFGYWGQGVMVTVSS
VL: DVVLTQTPPTLSATIGQSVSISCRSSQSLLHSNGNTYLHWLLQRPGQSPQLLIYLVSRLESGVPNRFSGSGSGTDFTLKISGVEAEDLGVYYCVQGTHAPWTFGGGTKLELK
notes: Rat monoclonal antibody from a hybridoma, used as culture supernatant and detected with anti-rat IgG-HRP; also called 2C11抗体; 抗CLDN15モノクローナル抗体(2C11)
On to B1, for which the binding result was “binds” with ヒトCLDN15タンパク質; “no binding” with ヒトCLDN9タンパク質; “no binding” with ヒトCLDN6タンパク質; “no binding” with ヒトCLDN1タンパク質; “no binding” in the experiment with ヒトCLDN4タンパク質; “no binding” in the experiment with ヒトCLDN5タンパク質.
